Measured values reported in article PMC11919277.
Blank lines part the entries; values can stand above or below the substance they belong to.

How the values were obtained:
Assay in all cases: co-immunoprecipitation (anti-HA agarose beads), western blot, ImageJ densitometry
Details in all cases: three independent experiments; parent: est. 0.97; read off a plot
[1] = biological target: WT-Clocka, FLAG-tagged (zebrafish Clocka, wild type)
[2] = biological target: WT-Bmal1a, HA-tagged (zebrafish Bmal1a, wild type)
[3] = biological target: Bmal1a-mut, HA-tagged (zebrafish Bmal1a with the four cetacean-specific BMAL1 mutations)

ratio to parent [1]: 1.2
Substance: WT-Bmal1a, HA-tagged (zebrafish Bmal1a, wild type) D3E; L456P; H461R; M466T

ratio to parent [2]: 1.6
Substance: WT-Clocka, FLAG-tagged (zebrafish Clocka, wild type) M724V; S752P; T779A

ratio to parent [3]: 1.6
Substance: m1; m3 Clocka: M724V; S752P; T779A; Bmal1a: D3E; L456P; H461R; M466T
